Experimental data: patent publication US20220184181A1 (Stanford University, published 2022)

Target: Met receptor on MDCK cells (UniProt Q75ZY9 25-1382, limits assumed)
Assay: cell-based or functional assay

B1: recombinant Aras-4, soluble (ligand)
chain: YAEGQGKRRNTIHEFKKSAKTTLIKIDPALRIKTEKANTADQCANRCTRSKGLPFTCKAFVFDKARKRCLWFPFNSMSSGVKKEFGHEFDLYENKAYIRDCIIGRGRNYRGTVSITKSGIKCQPWSAMIPHEHSFLPSSYRGEDLRENYCRNPRGEEGGPWCYTSDPEVRYEVCDIPQCSEVE
  inhibition of HGF-induced activation of Met: ~5 fold lower concentration
